Measured values taken from PMC10582461, “Self‐Aggregating Tau Fragments Recapitulate Pathologic Phenotypes and Neurotoxicity of Alzheimer's Disease in Mice” (Advanced Science, 2023).

Molecular target: the molecule itself
Assay: in vitro self-aggregation, non-reducing SDS-PAGE and immunoblot; tau-AC species alone (40-100 µM) in self-assembly buffer (10 mM HEPES pH 7.4, 100 mM NaCl, 1 mM DTT), 37 °C, shaking 250 rpm, no inducers; non-reducing SDS-PAGE, IB and CBB

B1: tau‐AC‐TQDVSK (tau‐AC with the PHF6 motif substituted with hydrophilic residues) (domain or fragment, human, UniProt P10636-8 306-378, looked up)
chain: TQDVSKPVDLSKVTSKCGSLGNIHHKPGGGQVEVKSEKLDFKDRVQSKIGSLDNITHVPGGGNKKIETHKLTF
notes: human tau residues 306-378 of 2N4R (441 residues) with 306VQIVYK311 changed to TQDVSK; numbers count on: 2N4R tau (441 residues); source: E. coli Rosetta 2 (DE3), pET28a, purified
B1: binds.
